# B1: Recombinant full-length wild-type human phenylalanine hydroxylase (His6-hPAH) (enzyme, UniProt P00439 1-452, looked up)
# chain: MSTAVLENPGLGRKLSDFGQETSYIEDNCNQNGAISLIFSLKEEVGALAKVLRLFEENDVNLTHIESRPSRLKKDEYEFFTHLDKRSLPALTNIIKILRHDIGATVHELSRDKKKDTVPWFPRTIQELDRFANQILSYGAELDADHPGFKDPVYRARRKQFADIAYNYRHGQPIPRVEYMEEEKKTWGTVFKTLKSLYKTHACYEYNHIFPLLEKYCGFHEDNIPQLEDVSQFLQTCTGFRLRPVAGLLSSRDFLGGLAFRVFHCTQYIRHGSKPMYTPEPDICHELLGHVPLFSDRSFAQFSQEIGLASLGAPDEYIEKLATIYWFTVEFGLCKQGDSIKAYGAGLLSSFGELQYCLSEKPKLLPLELEKTAIQNYTVTEFQPLYYVAESFNDAKEKVRNFAATIPRPFSVRYDPYTQRIEVLDNTQQLKILADSINSEIGILCSALQKIK
# notes: human phenylalanine hydroxylase, full-length wild type; The same protein was measured without L-Phe (hPAH^free) and with 1 mM L-Phe (hPAH^Phe); also called hPAH^free; hPAH^Phe; source: E. coli Top10 (pTrcHis-hPAH plasmid), purified (Ni-NTA; PD-10 into SEC buffer, then the beamline SEC column); not shown: His6 (with a 26-amino acid linker), N-terminal, kept
# Molecular target: the molecule itself
# Assay: SEC-SAXS; Shodex KW-404 column coupled to SAXS (B21, Diamond); 12 mg/mL hPAH injected; 20 mM Hepes pH 7.0, 200 mM NaCl; 20 °C; no L-Phe (hPAH^free); molecular mass from the Porod volume
protein,measurement,value
B1,stoichiometry N,4

# From PMC6754429, “Structure of full-length wild-type human phenylalanine hydroxylase by small angle X-ray scattering reveals substrate-induced conformational stability” (Scientific Reports, 2019)
